The source of these data is PMC12184499, “Pathogenic variants in the polycystin pore helix cause distinct forms of channel dysfunction” (Proceedings of the National Academy of Sciences of the …, 2025).

Data set [1] concerns the molecule itself. The data set is described as follows: SEC; Superdex 200 10/300 GL; PKD2 52-793 extracted with DDM and reconstituted in amphipol A8-35; Buffer B (25 mM pH 7.4, 150 mM NaCl, 1 mM TCEP, 1 mM CaCl2); oligomer and protomer peaks.
Data set [2] deals with the molecule itself. The data set can be described thus: cryo-EM structure; single-particle cryo-EM of variant channels in amphipol A8-35 (0.5 to 1.0 mg/mL), refined with C4 symmetry.

B1: PKD2 WT channel (hPKD2: 52-793) (domain or fragment, human, UniProt Q13563 52-793, looked up)
chain: LEIEMQRIRQAAARDPPAGAAASPSPPLSSCSRQAWSRDNPGFEAEEEEEEVEGEEGGMVVEMDVEWRPGSRRSAASSAVSSVGARSRGLGGYHGAGHPSGRRRRREDQGPPCPSPVGGGDPLHRHLPLEGQPPRVAWAERLVRGLRGLWGTRLMEESSTNREKYLKSVLRELVTYLLFLIVLCILTYGMMSSNVYYYTRMMSQLFLDTPVSKTEKTNFKTLSSMEDFWKFTEGSLLDGLYWKMQPSNQTEADNRSFIFYENLLLGVPRIRQLRVRNGSCSIPQDLRDEIKECYDVYSVSSEDRAPFGPRNGTAWIYTSEKDLNGSSHWGIIATYSGAGYYLDLSRTREETAAQVASLKKNVWLDRGTRATFIDFSVYNANINLFCVVRLLVEFPATGGVIPSWQFQPLKLIRYVTTFDFFLAACEIIFCFFIFYYVVEEILEIRIHKLHYFRSFWNCLDVVIVVLSVVAIGINIYRTSNVEVLLQFLEDQNTFPNFEHLAYWQIQFNNIAAVTVFFVWIKLFKFINFNRTMSQLSTTMSRCAKDLFGFAIMFFIIFLAYAQLAYLVFGTQVDDFSTFQECIFTQFRIILGDINFAEIEEANRVLGPIYFTTFVFFMFFILLNMFLAIINDTYSEVKSDLAQQKAEMELSDLIRKGYHKALVKLKLKKNTVDDISESLRQGGGKLNFDELRQDLKGKGHTDAEIEAIFTKYDQDGDQELTEHEHQQMRDDLEKEREDLDLDH
notes: PKD2 (polycystin-2), human, residues 52-793 (hPKD2: 52-793); Construct is Strep-MBP-TEV-PKD2; the Strep tag lies before MBP and the TEV site, so it probably left with MBP on TEV cleavage; The cryo-EM methods give 53-792 for the variants; also called polycystin; source: Expi293F GnTI-/- cells, transient transfection, purified (Strep-Tactin, amphipol A8-35, SEC); not shown: MBP, N-terminal, cleaved
In the case of B1, the binding result in data set [1] is on record as “binds”.

B2: PKD2 R638C variant channel (hPKD2: 52-793) (domain or fragment, human, UniProt Q13563 52-793, looked up)
chain: LEIEMQRIRQAAARDPPAGAAASPSPPLSSCSRQAWSRDNPGFEAEEEEEEVEGEEGGMVVEMDVEWRPGSRRSAASSAVSSVGARSRGLGGYHGAGHPSGRRRRREDQGPPCPSPVGGGDPLHRHLPLEGQPPRVAWAERLVRGLRGLWGTRLMEESSTNREKYLKSVLRELVTYLLFLIVLCILTYGMMSSNVYYYTRMMSQLFLDTPVSKTEKTNFKTLSSMEDFWKFTEGSLLDGLYWKMQPSNQTEADNRSFIFYENLLLGVPRIRQLRVRNGSCSIPQDLRDEIKECYDVYSVSSEDRAPFGPRNGTAWIYTSEKDLNGSSHWGIIATYSGAGYYLDLSRTREETAAQVASLKKNVWLDRGTRATFIDFSVYNANINLFCVVRLLVEFPATGGVIPSWQFQPLKLIRYVTTFDFFLAACEIIFCFFIFYYVVEEILEIRIHKLHYFRSFWNCLDVVIVVLSVVAIGINIYRTSNVEVLLQFLEDQNTFPNFEHLAYWQIQFNNIAAVTVFFVWIKLFKFINFNRTMSQLSTTMSRCAKDLFGFAIMFFIIFLAYAQLAYLVFGTQVDDFSTFQECIFTQFCIILGDINFAEIEEANRVLGPIYFTTFVFFMFFILLNMFLAIINDTYSEVKSDLAQQKAEMELSDLIRKGYHKALVKLKLKKNTVDDISESLRQGGGKLNFDELRQDLKGKGHTDAEIEAIFTKYDQDGDQELTEHEHQQMRDDLEKEREDLDLDH
notes: PKD2 (polycystin-2), human, residues 52-793, ADPKD germline missense variant R638C in pore helix 1; Construct is Strep-MBP-TEV-PKD2; the Strep tag probably left with MBP on TEV cleavage; The cryo-EM methods give 53-792; the model holds E214-Q694 without M295-A303; source: Expi293F GnTI-/- cells, transient transfection, purified (Strep-Tactin, amphipol A8-35, SEC); not shown: MBP, N-terminal, …
What is called stoichiometry N is a count of units in the complex or per binding partner. With B2, in data set [2], the “stoichiometry N” value came out at 4.

B3: PKD2 F629S variant channel (hPKD2: 52-793) (domain or fragment, human, UniProt Q13563 52-793, looked up)
chain: LEIEMQRIRQAAARDPPAGAAASPSPPLSSCSRQAWSRDNPGFEAEEEEEEVEGEEGGMVVEMDVEWRPGSRRSAASSAVSSVGARSRGLGGYHGAGHPSGRRRRREDQGPPCPSPVGGGDPLHRHLPLEGQPPRVAWAERLVRGLRGLWGTRLMEESSTNREKYLKSVLRELVTYLLFLIVLCILTYGMMSSNVYYYTRMMSQLFLDTPVSKTEKTNFKTLSSMEDFWKFTEGSLLDGLYWKMQPSNQTEADNRSFIFYENLLLGVPRIRQLRVRNGSCSIPQDLRDEIKECYDVYSVSSEDRAPFGPRNGTAWIYTSEKDLNGSSHWGIIATYSGAGYYLDLSRTREETAAQVASLKKNVWLDRGTRATFIDFSVYNANINLFCVVRLLVEFPATGGVIPSWQFQPLKLIRYVTTFDFFLAACEIIFCFFIFYYVVEEILEIRIHKLHYFRSFWNCLDVVIVVLSVVAIGINIYRTSNVEVLLQFLEDQNTFPNFEHLAYWQIQFNNIAAVTVFFVWIKLFKFINFNRTMSQLSTTMSRCAKDLFGFAIMFFIIFLAYAQLAYLVFGTQVDDFSTSQECIFTQFRIILGDINFAEIEEANRVLGPIYFTTFVFFMFFILLNMFLAIINDTYSEVKSDLAQQKAEMELSDLIRKGYHKALVKLKLKKNTVDDISESLRQGGGKLNFDELRQDLKGKGHTDAEIEAIFTKYDQDGDQELTEHEHQQMRDDLEKEREDLDLDH
notes: PKD2 (polycystin-2), human, residues 52-793, ADPKD germline missense variant F629S in pore helix 1; Construct is Strep-MBP-TEV-PKD2; the Strep tag probably left with MBP on TEV cleavage; The cryo-EM methods give 53-792; the model holds E214-Q694 without M295-A303; source: Expi293F GnTI-/- cells, transient transfection, purified (Strep-Tactin, amphipol A8-35, SEC); not shown: MBP, N-terminal, …
Consider B3, for which, in data set [2], the “stoichiometry N” value stood at 4.
